Data published in US20180021429A1, “ANTICANCER AGENTS OR ANTIMETASTATIC AGENTS USING FSTL1 AND COMBINATION DRUG THEREOF” (PHARMA FOODS INTERNATIONAL CO., LTD., priority 2015, published 2018).
Entries after “also recorded” stand apart in the source; their conditions may differ.

T1: FSTL1 (Homo sapiens, UniProt Q12841)
T1 sequence (Q12841 21-308): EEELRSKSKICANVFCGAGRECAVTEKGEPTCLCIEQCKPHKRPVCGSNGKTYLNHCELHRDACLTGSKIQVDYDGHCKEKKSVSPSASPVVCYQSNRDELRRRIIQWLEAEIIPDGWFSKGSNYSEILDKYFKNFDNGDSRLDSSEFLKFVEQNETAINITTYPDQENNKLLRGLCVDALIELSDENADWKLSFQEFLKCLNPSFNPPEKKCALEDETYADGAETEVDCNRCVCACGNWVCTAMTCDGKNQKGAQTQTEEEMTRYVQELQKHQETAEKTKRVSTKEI


Columns and labels:
[1] = target: T1, FSTL1; assay: MSC induction inhibition test using mouse bone marrow cells stimulated with FSTL1 (Example 27); type: cell-based; set-up: purchased R&D Systems, Inc. 1694-FN-050; details: FSTL1 20 ng/mL, antibody 10 μg/mL, 8 days
Procedure: (§1) In this Example, the inhibitory activity of the anti-FSTL1 antibody was confirmed in an experimental system of mesenchymal stem cell induction while a FSTL1 inhibitory effect on MSC expansion induced not only by FSTL1 but by Snail+ tumor cells was also evaluated. For specific operation, each antibody (10 μg/mL) was added to systems in which C57/BL/6 mouse-derived bone marrow cells were stimulated with FSTL1 (20 ng/mL) or a culture supernatant of tumor cells. After culture for 8 days under stimulation, cell fraction CD45(−) cells (MSCs) containing MSCs at a high rate and CD45(−)CD146(+)ALCAM(+) cells (sMSCs) increasing in number in association with cancer metastasis were analyzed by flow cytometry in the same way as in Example 14, and the number of cells per culture system was counted. In this Example, mouse immunoglobulin manufactured by BioLegend, Inc. (4401408, Cone MG1-45) was used as a control antibody.
as §1, with “(#401408,” for “(4401408,”

[2] = system: C57/BL/6 mouse-derived bone marrow cells; assay: as above; type: cell-based; details: FSTL1 20 ng/mL, antibody 10 μg/mL, 8 days; flow cytometry; FIG. 115A
Procedure: as §1, with “(#401408,” for “(4401408,”

[3] = system: induction of MSCs, cancer-associated MSCs, and M-MDSCs by FSTL1; assay: Inhibitory activity against induction of MSC, cancer-associated MSC and MDSC by FSTL1 (Examples 13-15); type: cell-based, mouse
Procedure: Mouse bone marrow cells prepared in the same way as in Example 4 were supplemented with 20 ng/mL (final concentration) of FSTL1 and 10 μg/mL of the anti-FSTL1 antibody (#6-55, #7-34, #8-1, or #8-4), an anti-PD-L1 antibody reported to have an immunosuppression-mitigating effect, or a control antibody anti-DNP antibody and cultured under stimulation. 8 days thereafter, the number of cells was counted while the cells were stained with a PE-Cy5-labeled anti-CD45 antibody, a PE-labeled anti-ALCAM antibody, a FITC-labeled anti-CD271 antibody (Abcam plc, Cat. No. AB62122), a FITC-labeled anti-CD11b antibody (BD Pharmingen/Becton, Dickinson and Company, Cat. No. 553310), and a PE-Cy5-labeled anti-Gr1 antibody (eBioscience, Cat. No. 15-5931) in order to detect MSCs (CD45-negative cells), cancer-associated MSCs (CD45-negative, ALCAM-positive, and CD271-positive cells) which are MSCs increasing in number in association with cancer metastasis, and monocytic myeloid-derived suppressor cells (M-MDSCs: CD11b-positive, Gr1-positive, and ALCAM-positive cells) increasing in number together with cancer-associated MSCs, and the contents of the cells mentioned above were analyzed by flow cytometry using FACScan to calculate the percentage and number of MSCs per culture (FIG. 8). […] PD-L1 is expressed in MSC and presumably influences the induction of MSCs.
The antibody clone (#6-55, #7, #10, #13, or […]) was evaluated for its activity by the same testing method as in Example 13. #6-55 was set as a positive control for activity. […] Mouse bone marrow cells were supplemented with FSTL1 and the predetermined concentration of each antibody and cultured for 8 days. 5×10^4 cells/well were separated from each culture system and evaluated for the ability to differentiate into adipocytes using an adipocyte differentiation reagent included in “Mesenchymal Stem Cell Functional Identification Kit (R&D Systems, Inc., Cat. No. SC010)”. For the evaluation method, the cells were supplemented with the adipocyte differentiation reagent and cultured for 8 days. Then, adipocytes per culture system were counted under a microscope for evaluation. In the graph, none is depicted in the leftmost bar, and the control antibody is depicted in the second bar from the left followed by the anti-FSLT1 antibody clones. […]
Mouse bone marrow cells (bone marrow cells prepared in the same way as in Example 4) were supplemented with 20 ng/mL (final concentration) of FSTL1 and 20.0, 10.0, 5.0, or 2.5 μg/ml (final concentration) of the rat anti-FSTL1 antibody or #6-55. […] The cells were cultured for 8 days, and the inhibitory activity of each antibody against the induction of MSCs, cancer-associated MSCs, and M-MDSCs by FSTL1 was evaluated in the same way as in Example 13 (FIG. 10A). […]

[4] = Example 14, FIG. 9A/39A, #6-55 as positive control

Row | Molecule | MSC induction inhibitory activity, reproducibility confirmed [1] | inhibitory effect in the MSC induction inhibition test (CD45(−) MSCs and sMSCs, flow cytometry) [1] | MSC induction inhibitory effect [2] | inhibitory activity against the induction of MSCs, cancer-associated MSCs, and M-MDSCs by FSTL1 [3, 4] | dose dependence ([3]; Example 15, FIG. 10A/40A, 2.5-20.0 μg/ml) | inhibitory activity against the induction of MSCs, cancer-associated MSCs, and M-MDSCs by FSTL1 ([3]; Example 15, FIG. 10A/40A, FSTL1 20 ng/mL, antibody 20.0, 10.0, 5.0, 2.5 μg/ml, 8 days)
1 | #33: chicken-mouse chimeric anti-FSTL1 antibody clone; variable regions SEQ ID NO: 823 (light), 825 (heavy) (antibody, V domains shown, mouse constant regions) VH: AVTLDESGGGLQTPGGGLSLVCKASGFTFSSFNMNWVRQAPGKGLEYVAEISGTGSSTYYGSAVKGRATISRDNGQSTVRLQLNNLRAEDTATYFCARGDGAYSIDAWGHGTEVIVSS VL: ASTQPSSVSANPGETVEITCSGDSSYYGWFQQKSPGSAPVTVIYDNTNRPSDIPSRFSGSKSGSTATLTITGVRAEDEAVYYCGGYDSSTYDGIFGAGTTLTVL | high MSC induction inhibitory activity equivalent to or higher than that of #6-55 | strong inhibitory effect equivalent to or higher than that of #6-55 | strong inhibitory effect equivalent to or higher than that of #6-55 | inhibitory activity equivalent to or higher than that of the positive control (#6-55); also recorded: inhibitory activity equivalent to or higher than that of the positive control (16-55) | – | –
2 | #13: chicken-mouse chimeric anti-FSTL1 antibody clone; variable regions SEQ ID NO: 815 (light), 817 (heavy) (antibody, V domains shown, mouse constant regions) VH: AVTLDESGGGLQTPGGGLSLVCKASGFTFSSVTMQWVRQAPGKGLEWVASICSGSSTYYGPAVKGRATISRDNGQNTVRLQLNNLRAEDTATYYCAKIVGRGRWSCTSAAYNIDAWGHGTEVIVSS VL: ASTQPSSVSANPGETVKITCSGGGNNYGWYQQKSPGSAPVTVIYNNNNRPSNIPSRFSGSKSGSTNTLTITGVQAEDEAVYYCGSYDSSSDSGIFGAGTTLTVL | – | strong inhibitory effect equivalent to or higher than that of #6-55 | strong inhibitory effect equivalent to or higher than that of #6-55 | inhibitory activity equivalent to or higher than that of the positive control (#6-55); also recorded: inhibitory activity equivalent to or higher than that of the positive control (16-55) | – | –
3 | #6-55: chicken-mouse chimeric anti-FSTL1 antibody clone; variable regions SEQ ID NO: 783 (light), 785 (heavy) (antibody, V domains shown, mouse constant regions) VH: AVTLDESGGGLQTPGGALSLVCKGSGFTFTSVTMQWVRQAPGKGLEWVASVCSGSSTYYAPAVKGRATISRDNGQSTVRLQLSNLRPEDTGTYYCAKIAGRARWSCTSAAYNIDAWGHGTEVIVSS VL: ASTQPSSVSAIPGETVKITCSGGGNNYGWYQQRSPGSAPVTVIYYNDNRPSNIPSRFSGSTSGSTSTLTITGVQADDEAIYYCGSWDSNTDSGIFGAGTTLTVL | – | – | – | – | No dose-dependent effect was confirmed; also recorded: dose dependence was not confirmed | slightly superior; also recorded: at the same level
